Results taken from publication PMC3278277.

Tests used:
Settings in all cases: glycan gained; control: wild type
[1] = HNG colorimetric assay, stable H4 lysates
[2] = GALC blot and activity in H4 conditioned medium
[3] = Anti-V5 blot of Ni-NTA purified C-terminal fragment, COS-1
[4] = Uptake index: recipient lysate activity / input medium activity

B1: galactocerebrosidase (GALC): D528N (protein)
parent chain: MLGKSHGRATHGPLPLADLGIHLPCVKVLHQVTPEEKPAATSRLLVNYPEPYRSQILDYLFKPNFGASLHILKVEIGGDGQTTDGTEPSHMHYALDENYFRGYEWWLMKEAKKRNPNITLIGLPWSFPGWLGKGFDWPYVNLQLTAYYVVTWIVGAKRYHDLDIDYIGIWNERSYNANYIKILRKMLNYQGLQRVKIIASDNLWESISASMLLDAELFKVVDVIGAHYPGTHSAKDAKLTGKKLWSSEDFSTLNSDMGAGCWGRILNQNYINGYMTSTIAWNLVASYYEQLPYGRCGLMTAQEPWSGHYVVESPVWVSAHTTQFTQPGWYYLKTVGHLEKGGSYVALTDGLGNLTIIIETMSHKHSKCIRPFLPYFNVSQQFATFVLKGSFSEIPELQVWYTKLGKTSERFLFKQLDSLWLLDSDGSFTLSLHEDELFTLTTLTTGRKGSYPLPPKSQPFPSTYKDDFNVDYPFFSEAPNFADQTGVFEYFTNIEDPGEHHFTLRQVLNQRPITWAADASNTISIIGDYNWTNLTIKCDVYIETPDTGGVFIAGRVNKGGILIRSARGIFFWIFANGSYRVTGDLAGWIIYALGRVEVTAKKWYTLTLTIKGHFTSGMLNDKSLWTDIPVNFPKNGWAAIGTHSFEFAQFDNFLVEATR
enzymatic_activity, percent_of_wt [1]: decreases
expression_or_secretion [2]: decreases
other: proteolytic processing [3]: no change
other: cellular uptake, other: uptake index [4]: decreases
